We go through 1 substance from article PMC7612964.

In this assay the target is Flag-NLS-Actin wt. Briefly: proximity ligation.

The substance “endogenous BRM (from UniProt P51531 1-1590) (natural protein)” returned a % PLA-positive cells (spread cells, high mechanical inputs) of 94.7%.
